The nanobody polyreactivity screen of Harvey et al. (2022)

Assay: yeast display, Sf9 membrane polyspecificity reagent, FACS + sequencing; frameworks hold sequencing errors
Method in brief: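 A nanobody's polyreactivity label depends on the gate it was sorted from. Yeast display cells were stained with 10% biotinylated, detergent-solubilized Sf9 membrane reagent for 1 hour at 4 °C, enriched on streptavidin microbeads and sorted by FACS. The low and high (top ~1%) gates were set on anti-HA fluorescence for expression and streptavidin fluorescence for reagent binding.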

Row | Sequence | polyreactivity (PSR sort gate)
1 | QVQLVESGGGLFQAGGSLRLICAASGLIINGNAMGWYRQAPGKERELVADITGSSVRTYYADSVKGRFTISRDNAKNTVYLQMNSLKPEDTAVYYCAKDPDKVDYVDMDYWGQGTQVTVSS | low polyreactivity
2 | QVQLVESGGGLFQAGGSLRLSCAASGRIFGSYAMGWYRQAPGKERELVAAIFSAGSTYYADSVKGRFTISRDNAKNTVYLQMNSLKPEDTAVYYCAAGAYWPWGEDYWGQATQVTVSS | high polyreactivity
3 | QVQLVESGGGLFQAGGSLRLSCAASGRIFHGYDMGWYRQAPGKERELVAAITWRGGSTYADSVKGRFTISRDNGKNTVYLQMNSLKPEDTAVYYCAADTVYYGYFFYYWGQVTQVTVSS | high polyreactivity
4 | QVQLVESGGGLFQAGGSLRLSCAASGRTFCFYTMGWYRQAPGKASELVAAISSGGSTNYADSVKGRFTISRDNAKNTVYLQMNSLKPEDTAVYYCNARFPVCPSEDAVWYYPKFDYWGQGTQVTVSW | low polyreactivity
5 | QVQLVESGGGLFQAGGSLRLSCAASGRTFCPYTMGWYRQAPGKERELVAVISSNDGSTDYADSVKGRFTFSRDNAKNTVYLQMNSLKPEDTAVYYCAAEVYFGYYGGYGYWGQGTQVTVSS | low polyreactivity
6 | QVQLVESGGGLFQAGGSLRLSCAASGRTFSHNGMGWYRQAPGKERELVATINRGGNTYYADSVKGRFTISRDNAKNTVYLQMNSLKPEDTAVYYCAARRSFLFDEGNYWGQGTQVTVSS | low polyreactivity
7 | QVQLVESGGGLFQAGGSLRLSCAASGRTFYKYAMGWYRQAPGKERELVATITSGGSTNYADSVKGRFTISRDNAKNTVYLQLNCLKPEETAVYYFAARGHIYKIRDPYWTHDFWGQGTQVTVSS | low polyreactivity
8 | QVQLVESGGGLFQAGGSLRLSCAASGRTLLGNAMVWYRQAPGKEREFVAAISYRGGSTYYADSVKGRFTISRDYAKNTVYLQMKSLKPEDTAVYYCAASSFKYSRFDYWGQGTQVTVSS | low polyreactivity
9 | QVQLVESGGGLFQAGGSLRLSCAASGRTLRRNALGWYRQAPWKERELVAAISTGGGSTYYADSVKGRFTISRDYAKKTVYLQINSLNPEDSAVYYCAAVYSQSTKRYELYYWGQGTQVTVSS | high polyreactivity
10 | QVQLVESGGGLFQAGGSLRLSCAASGRTVVGYAMGWYRQAPGKERELVAAFTGSGGRTYDADSVKGRFTISRDNAKNTVYLQMKSLKPEDTAVYYCNNVYRFSSGAYLYDYWVQGTQVTVSS | high polyreactivity
11 | QVQLVESGGGLFQAGGSLRLSCAASGSIFAWYAMGWYRQAPGKERELVAVITSGGSTNYADSVKGRFTISRDNEKNTVYLQMNSLKPEDTAVYYCAAGSYYSWYPFDYWGQGTQVTVSS | low polyreactivity
12 | QVQLVESGGGLFQAGGSLRLSCAASGSIFRAYAMVWYRQAPGKERELVAAITRGGSTNYADSVKGRFTISRDNAKNTVYLQMNSLKPEDTAVYYCAAQNYWYYPRRFDYWGQGTQVTVSS | high polyreactivity
13 | QVQLVESGGGLFQAGGSLRLSCAASGSIFRYYAMGWYRQAPGKERELVARISWRGGSTYADSVKGRFTISRDNAKNTVYLQMNSLKPEDTAVYYCAGVLAVGSYDYWGQGTQVTVSS | low polyreactivity
14 | QVQLVESGGGLFQAGGSLRLSCAASGSIFVGYAMGWYRQAPGKERELVAAITNSGGRTYYADSVKGRFTISRDNAKNTVYLQMNSLKPEDTAVYYCNRVTGKYRYWVGFEYWGQGTQVTVSS | high polyreactivity
15 | QVQLVESGGGLFQAGGSLRLSCAASGSISIKNAMGWYRQAPGKERELVATITYNGGSTYYADSVKGRFTISRDNAKNTVYLQMNSLKPEDTAVYYCARDAFEPYDVGEYYYWGQGTQVTVSS | low polyreactivity
16 | QVQLVESGGGLFQAGGSLRLSCAASGSTFIYYVMGWYRQAAGKVWELVAAISTSGGRTYYADSVKGRYTISRDNAMNTVSLLMNSLKPVVTAVYYCAAVARTNGSIKFESWGQGTQVTVSS | high polyreactivity
17 | QVQLVESGGGLFQAGGSLRLSCAASGSTFPYNAMGWYRQAPGKERELVAAITWRAGRTYYADSVKGRFTISRDNAKNTVYLQMNSLKPEDTAVYSCAKSYQRGVNHYEYWGQGTQVTVSS | high polyreactivity
18 | QVQLVESGGGLFQAGGSLRVSCAASGRIFFPYAMGWYRQAPGKERELVASIRGGGSTSYADSVKGRFTFSRDNAKNTVYLQMNSLKPEDTAVYYCAATPQAYWVLWSTYYTYYYWGQGTQVTVSS | high polyreactivity
19 | QVQLVESGGGLFQAGGSLSLSCAASGRTLWLYTKRWYTQAPGKEWELVARIRSGGSTYYADSVKGRFTISRDNAKNTVYLQMNSLKPEDTAVYYCAVGSRYYGRGYYYWGQGTQVTVSW | high polyreactivity
20 | QVQLVESGGGLFQAGGTHRLSCAASGFISKYYAMGWYRQAPGKERELVSSISRDGSTSYADSVKGRFTISRDNAKNTVYLQMNSLKAEDSAVYYCAAPSYRTRYYYWGQGTQVTVSS | high polyreactivity
21 | QVQLVESGGGLFQAGRSLRISCAASGFIFSQNTMGWYRQAPGKEWELVAAISKSRGTTYYADSVKGRYTITRDNAKNTVYLQMYSLKPEDTAVYYCAARIQWPTWSLYYYWGQGTQVTVSS | high polyreactivity

Row | Sequence | polyreactivity (PSR sort gate)
22 | QVQLVESGGGLFQAGVSLRLSCAASGSTIGVNAMGWSRKAPGKERELVAAISRGGGRTYYADSVKWRFTISRDIAKKTVYLQMICLKPEDTAVYYCNTDFGARMGYWGQGTEVTVSS | high polyreactivity
23 | QVQLVESGGGLFQARGSLRLSCAASGLTFWYYDMGWYRQAPGKERELFAAINSGGSTYYADSEKGRFTISRDNAKNTVYLEINRLKPEDTAVYYCNKDFSKTWRYASYYYWGQGTQVTVSS | low polyreactivity
24 | QVQLVESGGGLFQEGGSLRLSCAASGSIFNGYAMGWYRQAPGKEREFVDAITFSATSTYYADSVKRRFTLSRDNAKNTVYLQMNSLKPEDTAVYYCAVAVPLSRYWWRRTYDYWGQGTQVTVSS | low polyreactivity
25 | QVQLVESGGGLFQEGGSLRLSCAASGSTFSVNAMGWYRQAPGKERELVAAISKRVGSTYYADSVKGRFTISRDNAKNTVYLQMNSLKPEDTAVYYCAAVIVHYGRAYDYWGQGTQVTVSS | high polyreactivity
26 | QVQLVESGGGLGQAGGSLRLSCAASGFIFGSYAMGWYRQAPGKARELVAAISWSGASTYYADSVKGRFTISRDNAKKTVYLQMNSLIPEDTAVYYCAAVSRYGWYDYWGQGTQVTVSS | high polyreactivity
27 | QVQLVESGGGLGQAGGSLRLSCAASGFIFVWYAMGWYRQAPGKERELVAAINWSGGHTYYADSVKGRFTISRDNSKNTVYLQMNSLKPEDTAVYYWNADSLWYWFYPYNYWGQGTQVTVSS | low polyreactivity
28 | QVQLVESGGGLGQAGGSLRLSCAASGFTFSSNAMGWYRQAPGNERALVAAISGNGGITYYADSVKGRFTISRDNAKNTVYLQMNCLKPEDTAVDYCAAEAYRYAWYDYWGQGTQVTVSS | high polyreactivity
29 | QVQLVESGGGLGQAGGSLRLSCAASGFTYYYYAMGWYIQAPRKDRELVAAISGGGGSTYYADSVKGRFTLSRDNAKNTVYLQMNSLKQVDTAVYYCAAVGSWRYYYDYDYWGQGTQVNVSS | high polyreactivity
30 | QVQLVESGGGLGQAGGSLRLSCAASGLTFTKNVMGWSSQAPGKERELVAVISRSGGSTYYADSVKGRFTISRDNAKNTVYLQMISLKPEDTAVYYCNVKGPGPSRGNYWGQGTQVTVSS | low polyreactivity
31 | QVQLVESGGGLGQAGGSLRLSCAASGRIFRYNAMGWYRQAPGKERELVAAITSGTGTNYADSVKGRFTISRDNAKNTVYLQMNSLKPEDTAVYYCNKVRKSYRYDYWGQGTQVTVSS | low polyreactivity
32 | QVQLVESGGGLGQAGGSLRLSCAASGRIFVGYAMGWYRQAPGKERELVAAIDVGGGSTYYADSVKGRFTISRDNAKNTVYLQMNSLKPEDTAVYYCAADAFGWSSYWPYDYWGQGTQVTVSS | low polyreactivity
33 | QVQLVESGGGLGQAGGSLRLSCAASGRIFYSYAMGWSRQAPGKESELVAAITESGGSTNYADSVKGRFTISRDNAKNTVYLQMNSLNPEDTAVFYCNARYKLTFNLYNYWGQGTQVTVSS | low polyreactivity
34 | QVQLVESGGGLGQAGGSLRLSCAASGRTFRYYAKGWYRQAPGKERELVAAINRGGSTSYADSVKGRFTISRDNAKNTVYLQMNSLKPEDTAVYYCNVDKYRLVGFHSPYDYWGQGTQVTVSS | high polyreactivity
35 | QVQLVESGGGLGQAGGSLRLSCAASGSIFSSYAMGWYRQAPGKERELVAAISQSGGDTYYADSVKGRFTISRDNAKNTVYLQMNSLKPEDTAVYYSAASVWYYPMDYWGQGTQVTVSS | low polyreactivity
36 | QVQLVESGGGLGQAGGSLRLSCAASGSTFGRYVMGWYRQAPGKERELVAAISKNSGSTYYAYSVKGRFTISRDNAKNTVYLQMNSLKPEDTAVYYCAADWRSKGYDSLGQGTQVTVSS | high polyreactivity
37 | QVQLVESGGGLIQAGGSLRLSCAASGSILSDYVMAWYRQAPGKERELVAAITNDDSTNYADSVKGRFTISRDNAKNTVYLQMNSLKPEETAVYYCAAEWLVVYYISTGESYKVEFDYCGQGTQVTVSS | low polyreactivity
38 | QVQLVESGGGLLKAGGSLRLTCAASGRIFSSYDMGWYRQAPGKERELVAAISNSGGNTYYADSVKGRFTISRDNAKNTVYLQMNSLKPEDTAVYYCAAVAFWAIFDFYWYYPYEYDYWGQGTQVTVSS | high polyreactivity
39 | QVQLVESGGGLLKAGRSLRLSCAASGRIFGYYAMGWYRQAPGKERELVAAISTGGGRTYYADSVKGRFTISRDNAKNTVYLQMNSLKPEDTAVYYCAARLKWGWPTYDYWGQGTQVTVSS | high polyreactivity
40 | QVQLVESGGGLLQAAGSLRLSCAASGIIFHIYAMGWYRQAPGKERELVAAISTGSSTYYADSVKGRFTISRDNAKNTVYLQMKSLKPEDTAVYYCNAVSRLLWVKGFDYWGQGTQVTVSS | low polyreactivity
41 | QVQLVESGGGLLQAGGSLRISCAASVSIFYHYAMGWYRQAPGKERELVAAISWRGGSTNYADSVKGRFTISRDNAKNTVYLQMNSLKPEDSAVYYCNAVQRRREYYWGQGTQVTVSS | high polyreactivity
